Here are results for three molecules from patent US20190055510A1, “WELL PLATE-BASED PERFUSION CULTURE MODEL OF ENDOSTEAL-EXTRACELLULAR MATRIX (ECM)-AND ENDOTHELIAL-MYELOMA INTERACTIONS AND METHODS FOR TESTING PERSONALIZED THERAPEUTICS FOR MULTIPLE MYELOMA” (Hackensack University Medical Center, priority 2016, published 2019).

Assay type in all cases: cell-based, human
The subject of experiment [1] is CD138+ PMMCs. Description: Drug response of CD138+ PMMCs co-cultured with osteoblast (OSB) tissue in 96-well plate-based perfusion culture, viability by flow cytometry. Conditions: cultured with OSBs. On the procedure: Using the 96-well plate-based culture platform described in Example 2, osteoblasts (OSBs) (hFOB 1.19 cell line) were cultured for 4 days at 20% O2 tension to form an ossified tissue structure. Patient bone marrow mononuclear cells (BMMCs) containing PMMCs, were seeded on the ossified tissue structure and cultured for up to 5 weeks. […] When O2 tension was decreased to 1%, the proliferation rate of PMMCs decreased (FIG. 2C) while their viability was not compromised (data not shown). […] PMMCs also acquired cell adhesion mediated drug resistance (CAM-DR) due to the adhesive interactions with OSBs.
The response of PMMCs to two commonly used drugs to treat MM patients: (1) carfilzomib, a proteasome inhibitor; and (2) melphalan, which is often used to treat newly diagnosed MM patients along with stem-cell transplantation, was evaluated. OSB tissue was cultured for 4 days either at 1 or 20% O2 prior to seeding of PMMCs. After seeding, PMMC-OSB cultures were dosed with either carfilizomib or melphalan. After 24 h, flow cytometry was used to analyze the viability of CD138+PMMCs. […] Dual Inhibition Of Mcl-1 By The Combination Of Carfilzomib and TG02 In Multiple Myeloma, (2013)). […] British journal of haematology 152, 579-592, doi:10.1111/j.1365-2141.2010.08533.x. (2011); Xiang, Y. et al. Monitoring a Nuclear Factor-κB Signature of Drug Resistance in Multiple Myeloma. […]
A general note: In flow cytometry, cells or beads pass a laser one at a time.

The subject of experiment [2] is CD138+ PMMCs. Description: Drug response of CD138+ PMMCs cultured in fibrin. Conditions: in contrast to culture with OSBs (FIG. 3B). The method, then: The response of PMMCs to two commonly used drugs to treat MM patients: (1) carfilzomib, a proteasome inhibitor; and (2) melphalan, which is often used to treat newly diagnosed MM patients along with stem-cell transplantation, was evaluated. OSB tissue was cultured for 4 days either at 1 or 20% O2 prior to seeding of PMMCs. After seeding, PMMC-OSB cultures were dosed with either carfilizomib or melphalan. After 24 h, flow cytometry was used to analyze the viability of CD138+PMMCs. […] Dual Inhibition Of Mcl-1 By The Combination Of Carfilzomib and TG02 In Multiple Myeloma, (2013)). […] British journal of haematology 152, 579-592, doi:10.1111/j.1365-2141.2010.08533.x. (2011); Xiang, Y. et al. Monitoring a Nuclear Factor-κB Signature of Drug Resistance in Multiple Myeloma. Molecular & Cellular Proteomics 10, doi:10.1074/mcp.M110.005520 (2011)).
In this study, fibrin was used to reconstruct extracellular matrix (ECM) niche tissue containing patient bone marrow mononuclear cells (BMMCs). […]

The test system of experiment [3] is 3D-osteocytes (OSTs). Description: Continuous PTH treatment of 3D-reconstructed osteocytes, relative gene expression. Conditions: 50 nM PTH for 2 days, compared to no treatment and 2D-OSTs controls (FIG. 4F). An excerpt:
Cells and biphasic calcium phosphate (BCP) or polystyrene (PS) microbeads in the range of 20-25 μm (i.e, 20 μm, 21 μm, 22 μm, 23 μm, 24 μm and 25 μm) in diameter were assembled into the culture chamber, via forced liquid withdrawal through the PC membrane, to form a close-packed structure (FIG. 1). […] The cells entrapped within the interstitial spaces between the microbeads formed a 3D cellular network by extending and connecting their processes through openings between the microbeads over 2 weeks. […] The observed O2 tension effects are similar to those reported on the osteocytic differentiation of OSBs (Hirao, M. et al. Oxygen tension is an important mediator of the transformation of osteoblasts to osteocytes. Journal of bone and mineral metabolism 25, 266-276, doi:10.1007/s00774-007-0765-9 (2007); Chen, D. et al. HIF-1alpha inhibits Wnt signaling pathway by activating Sost expression in osteoblasts. PloS one 8, e65940, doi:10.1371/journal.pone.0065940 (2013); Clinkenbeard, E. L. et al. Neonatal iron deficiency causes abnormal phosphate metabolism by elevating FGF23 in normal and ADHR mice. Journal of bone and mineral research: the official journal of the American Society for Bone and Mineral Research 29, 361-369, doi:10.1002/jbmr.2049 (2014)).
In order to characterize the regulatory functions of 3D-osteocytes (OSTs) on osteoclastogenesis and osteoblastic development, the effects of continuous parathyroid hormone (PTH) treatment was evaluated.

For the molecule `CC(C)C[C@H](NC(=O)[C@H](CCc1ccccc1)NC(=O)CN1CCOCC1)C(=O)N[C@@H](Cc1ccccc1)C(=O)N[C@@H](CC(C)C)C(=O)[C@@]1(C)CO1` [carfilzomib], the “response (viability) of CD138+ PMMCs to carfilzomib” value in experiment [1] (100 nM carfilzomib, 20% O2, 24 h, flow cytometry (FIG. 3A)) is reported as “significant resistance”.

For `N[C@@H](Cc1ccc(N(CCCl)CCCl)cc1)C(=O)O` [melphalan], the “response (viability) of CD138+ PMMCs to melphalan” value in experiment [1] (100 μM melphalan, both 1 and 20% O2, 24 h, flow cytometry (FIG. 3B)) was “highly resistant”. Further, in experiment [2], the “sensitivity of CD138+ PMMCs to melphalan” value is “significantly more sensitive”.

B1: parathyroid hormone (protein, UniProt P01270 32-115, looked up)
Parathyroid hormone: SVSEIQLMHNLGKHLNSMERVEWLRKKLQDVHNFVALGAPLAPRDAGSQRPRKKEDNVLVESHEKSLGEADKADVNVLTKAKSQ
modifications: Parathyroid hormone
notes: parathyroid hormone, known to induce OSTs to increase RANKL and decrease OPG and SOST gene expression
On to B1, for which, in experiment [3], the FGF23 gene expression result is recorded as “decreased”, the OPG gene expression entry is “decreased”, the RANKL gene expression result was “increased” and the SOST gene expression result is “decreased”.
